B1: Xcc XopR-FL (aa 1-411) (natural protein)
chain: MRLSQLFNSRHRVAPEPHGANPNKTTPLIPGASPQHPLSQAPKSTTSQGASKSHRGMLASARKSLASLRKQLPLTCMGSSPTLETVESPPAHTAAVTPGRTQQQHGTQARVDQRWQPPVPNATDHERVQRPQPQPQQTPPTRQSMSVPPKPARAQQLHGPQRPVDPRMQPPIPERMRRDEGQPPQHDKPASPPVPITPAQSSLPSPRPQPGRQPSLRRLDLQLEEITRQCSDIQKQLFMEDREATPQEQHLLKTRAALIAWRNEVRDSQLEALLVALAPMEDIRAPRTTSSGLAMVQMDAMQHNRREVLKARRKSVDRAALARNYARAQRRLESLKQGDAPKEQIRRLQRMMQGYQNMLALEQIVRSTDDQLERLGAPRLMSGIPTTAEQRRQSFEKERDAHQEAIDNGYY

What was measured:
[1] = target: the molecule itself; assay: SPR; bivalent model, koff1
Xcc XopR-FL (aa 1-411) = target: B1; assay: SPR; bivalent model, koff1

Row | Binder | koff [1] | koff (Xcc XopR-FL (aa 1-411))
1 | B1 | 0.27 s⁻¹ | 
2 | Arabidopsis thaliana Formin 1 AtFH1-FH1C (domain or fragment) RQGLQSQLLSSPSNSHGGQGFLKQLDALRSRSPSSSSSSVCSSPEKASHKSPVTSPKLSSRNSQSLSSSPDRDFSHSLDVSPRISNISPQILQSRVPPPPPPPPPLPLWGRRSQVTTKADTISRPPSLTPPSHPFVIPSENLPVTSSPMETPETVCASEAAEETPKPKLKALHWDKVRASSDREMVWDHLRSSSFKLDEEMIETLFVAKSLNNKPNQSQTTPRCVLPSPNQENRVLDPKKAQNIAILLRALNVTIEEVCEALLEGNADTLGTELLESLLKMAPTKEEERKLKAYNDDSPVKLGHAEKFLKAMLDIPFAFKRVDAMLYVANFESEVEYLKKSFETLEAACEELRNSRMFLKLLEAVLKTGNRMNVGTNRGDAHAFKLDTLLKLVDVKGADGKTTLLHFVVQEIIRAEGTRLSGNNTQTDDIKCRKLGLQVVSSLCSELSNVKKAAAMDSEVLSSYVSKLSQGIAKINEAIQVQSTITEESNSQRFSESMKTFLKRAEEEIIRVQAQESVALSLVKEITEYFHGNSAKEEAHPFRIFLVVRDFLGVVDRVCKEVGMINERTMVSSAHKFPVPVNPMMPQPLPGLVGRRQSSSSSSSSSTSSSDEDEHNSISLVS |  | 0.0152 s⁻¹
